According to patent US11872261B2, “Lipoprotein targeting protease inhibitors and uses” (The United States of America, as represented by the …, priority 2016, dated 2024):
No end group written: not given here. PEG2000 = poly(ethylene) glycol, 2000; VitE = vitamin E (alpha tocopherol)

Tests used:
J774 mouse macrophages = experiment: Elastase induced TNF-α production by J774 macrophages; type: cell-based
Protocol: (§1) FIG. 9A-9E. Alpha-1-antitrypsin enriched HDL prevents elastase induced TNF-α production by macrophages. (FIG. 9A) J774 mouse macrophages treated with increasing amounts of porcine pancreatic elastase (PPE) or heat inactivated elastase for 4 hours, TNF-α in the culture media was measured by ELISA. (FIG. 9B) J774 cells pretreated with PBS, isolated human HDL (nHDL), the same HDL enriched with alpha-1-antitrypsin (A1AT nHDL), or lipid free A1AT for 1 hour prior to PPE addition. (FIG. 9C) The ability of each of the cell treatments to inhibit elastase activity was measured in a cell-free assay. (FIG. 9D) Treatments were pre-incubated with PPE prior to addition to cells and TNF-α was measured in the culture media after 4 hours. (FIG. 9E) J774 cells were pre-incubated with each treatment for 1 hour; cells were then washed twice with PBS and placed in fresh media containing PPE and TNF-α was measured in the culture media after 4 hours. All experiments were repeated at least 3 times and were done in triplicates. Treatments were compared using one-way ANOVA and Tukey's multiple comparisons test, p<0.05 was considered significant. The letters above each treatment indicate statistical significance; within each graph, bars bearing different letters were statistically different from each other.
J774 mouse macrophages were used to examine the potential functional role of alpha-1-antitrypsin enriched HDL in inflammation. For these experiments, cells were plated in 12-well culture plates at a density of 1×10^5 cells/well two days prior to the experiment. Cells were washed twice with PBS and placed in serum-free media for 1 hour prior to addition of treatment. Treatments (PBS, nHDL, A1AT-HDL or A1AT) were added to serum-free culture media: HDL protein was matched for nHDL and A1AT-nHDL at a final concentration of 200 μg/mL. A1AT concentration was matched between free A1AT and A1AT-nHDL at a final concentration of 2 μM. Cells were then incubated with elastase (porcine pancreas, Sigma Aldrich, 500 nM) for 4 hours and media was collected and centrifuged at 3,000×g for 5 min to pellet any loose cells or debris and supernatant was transferred to fresh tubes and stored at −80° C. until further analysis. Elisa assays for mouse TNF-α (BioLegend) were performed on cell culture media.
Next, J774 cells were pre-incubated with PBS, native HDL (nHDL), A1AT enriched nHDL, or lipid-free A1AT for 1 hour prior to the addition of elastase to the culture media to allow for […] of A1AT.

[1] = target: T1, porcine pancreatic elastase (PPE) (Sus scrofa, UniProt P00772); experiment: Elastase inhibition of the cell treatments in a cell-free assay; type: biochemical; details: same treatments as for J774 cells
T1 construct: incubated with elastase (porcine pancreas, Sigma Aldrich, 500 nM) for 4 hours; purchased Sigma Aldrich; host or cells: porcine pancreas
Protocol: as §1, with “other. […]” for “other.”

reconstituted HDL (rHDL) = target: T2, reconstituted HDL (rHDL) (Homo sapiens, UniProt P02647); experiment: Binding of A1AT to reconstituted HDL, size exclusion chromatography; details: gel filtration profile, HDL containing apoA-I and phospholipids
T2 construct: Reconstituted HDL was prepared by cholate dialysis method, using human purified apolipoprotein A-I; from tissue
Protocol: FIG. 7A-7B. Alpha-1-antitrypsin has reduced anti-elastase activity when bound to reconstituted HDL. Reconstituted HDL (rHDL) were prepared from apoA-I and phospholipids by cholate dialysis and then co-incubated with alpha-1-antitrypsin (A1AT) to generate A1AT enriched rHDL. (FIG. 7A) Size exclusion chromatography on tandem Superdex 200 columns was used to isolate HDL bound A1AT from lipid free protein. (FIG. 7B) The ability of lipid free and rHDL bound A1AT to inhibit neutrophil elastase (NE) activity was measured by fluorometric assay.
Reconstituted HDL was prepared by cholate dialysis method, using human purified apolipoprotein A-I and 1-palmitoyl-2-oleoyl-sn-glycero-3-phosphocholine (Avanti) as previously described (Matz & Jonas, J Biol Chem 257: 4535-4540, 1982). Native human HDL was isolated from plasma by sequential density gradient ultracentrifugation (Chapman et al., J Lipid Res 22: 339-358, 1981). Reconstituted or native HDL was co-incubated with alpha-1-antitrypsin protein (Human, Sigma Aldrich) overnight at 37° C. Unbound A1AT was removed by filtration, using Amicon Ultra 100 kDa centrifugal filter units (Millipore). Elastase activity assays were performed with the EnzChek® elastase assay kit (Life Technologies). […]

elastase = target: T3, elastase (Sus scrofa, UniProt P00772); experiment: EnzChek elastase inhibitor assay (Example 3); type: biochemical; details: EnzChek Elastase Assay Kit
T3 construct: purchased Molecular Probes E-12056
Description: Elastase Inhibitor Assay.

HDL = experiment: E-AAPV coincubated with purified human HDL, HDL repurified and tested for elastase inhibitor activity; type: binding; details: coincubated 30 minutes at 37° C., HDL repurified by size-exclusion chromatography
Protocol: Isolated Human HDL was co-incubated with the E-AAPV (SEQ ID NO: 5) peptide for 30 minutes at 37° C. and then HDL was reisolated by FPLC to remove unbound E-AAPV (SEQ ID NO: 5). The HDL was then tested for elastase inhibition activity and compared to control HDL which was coincubated with PBS (no peptide) and repurified. Sampes were matched based on phospholipid content.
E-AAPV peptide binds HDL and confers elastase inhibitor activity. The reaction product (E-AAPV; SEQ ID NO: 5) was coincubated with purified human HDL for 30 minutes at 37° C. followed by repurification of HDL by size-exclusion chromatography to remove unbound E-AAPV (SEQ ID NO: 5) peptide. The repurified HDL was then tested for elastase inhibitor activity using the assay described above.
E-AAPV (SEQ ID NO: 5)-loaded HDL was compared to the same HDL that was coincubated with buffer only (No peptide). The HDL and HDL+E-AAPV (SEQ ID NO: 5) were normalized based on phospholipid content, determined by colorimetric assay, prior to measurement of elastase activity.

T3 sequence (P00772 27-266): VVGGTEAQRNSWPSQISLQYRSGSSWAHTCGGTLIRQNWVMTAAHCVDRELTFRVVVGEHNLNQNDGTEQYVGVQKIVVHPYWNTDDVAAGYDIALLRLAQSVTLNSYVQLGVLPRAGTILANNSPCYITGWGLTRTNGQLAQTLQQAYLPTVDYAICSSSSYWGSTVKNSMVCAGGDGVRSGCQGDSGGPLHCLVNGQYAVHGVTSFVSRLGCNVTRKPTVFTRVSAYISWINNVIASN
T1 sequence (P00772 27-266): as above
T2 sequence (P02647 25-267): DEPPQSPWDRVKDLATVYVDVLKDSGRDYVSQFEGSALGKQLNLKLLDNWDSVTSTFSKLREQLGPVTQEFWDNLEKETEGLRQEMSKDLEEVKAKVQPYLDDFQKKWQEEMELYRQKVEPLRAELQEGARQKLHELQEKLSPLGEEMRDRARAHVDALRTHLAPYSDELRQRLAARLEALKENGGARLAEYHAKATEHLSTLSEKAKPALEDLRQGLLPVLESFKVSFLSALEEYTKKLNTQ

Substance | proteolytic degradation of A1AT in cell culture media, western blot (J774 mouse macrophages; J774 cell culture media) | inhibition of elastase induced TNF-α production, treatment pre-incubated with elastase (J774 mouse macrophages; pre-incubated with elastase prior to addition to the cells) | protection against elastase induced TNF-α production (J774 mouse macrophages; pretreated 1 hour prior to elastase, A1AT 2 μM) | protection against elastase induced TNF-α production after removal of treatment (J774 mouse macrophages; pretreated 1 hour, cells washed, fresh media containing elastase) | inhibition of elastase activity in a cell-free system [1] | association of A1AT with discoidal reconstituted HDL (reconstituted HDL (rHDL)) | elastase inhibitor activity (elastase) | elastase inhibitor activity (elastase; listed as VitE-PEG-AAPV) | binding to HDL (HDL)
A1AT: alpha-1-antitrypsin protein (Human, Sigma Aldrich), serine protease inhibitor | no evidence of proteolytic degradation | readily able to inhibit elastase induced TNF-α production | no significant protection | no effect | significant anti-elastase activity | a significant fraction of A1AT associates with HDL |  |  | 
VitE-PEG-Ala-Ala-Pro-Val ({VitE-PEG2000}-AAPV) [E-AAPV, vitamin E linked to the A1AT linear peptide AAPV via a PEG2000 linker] |  |  |  |  |  |  | does not affect elastase inhibition activity | retains elastase inhibitor activity | binds HDL
